Reference: the supplement of paper PMC11780869

Test system: Bacillus subtilis
Assay: cleaved RNA product abundance (RNA/gDNA barcode ratio) relative to median wild-type variant (ratio to wild type); higher = more accumulation of the downstream cleavage product
Conditions: experiment (reporter, strain, medium): exp 8a: truncated aprE reporter, strain BJT201 with 2% xylose (RNase J1 expressed); cleavage site: glnRA (positions -5 to +31 mutated)
How it was run: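 In LB at 37°C, B. subtilis cultures went from OD600 0.0003 to 0.3. Their chromosomes held barcoded reporter mRNAs, truncated aprE or tetM, with RNase Y cleavage-site windows mutagenized via oligos at a 9% error rate. Cleaved RNA, chosen by gel, was reverse transcribed and barcode-sequenced alongside genomic DNA barcodes with UMI collapsing, giving a per-construct RNA:gDNA ratio scaled to the median construct with the unmutated site. This scaled ratio is termed cleaved product abundance.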

Row | Sequence | cleaved RNA product abundance
1 | CGACATGTCCCGCTTCTTTCATTAATCCGTTAGCAACTATTTTGCTATATACATTTACTTTTTAAGAGGAGGAAT | 1.55
2 | CGACATGTCCCGCTTCTTTCATTAATCCGTTAGCAACTATTTTGCTATATACATTTAGCTTTTAAGAGGAGGAAT | 1.16
3 | CGACATGTCCCGCTTCTTTCATTAATCCGTTAGCAACTATTTTGCTATATACGTTTACCTTTTAAGAGGAGGAAT | 0.197
4 | CGACATGTCCCGCTTCTTTCATTAATCCGTTAGCAACTATTTTGCTATATATATTTACCTTTTAAGAGGAGGAAT | 1.42
5 | CGACATGTCCCGCTTCTTTCATTAATCCGTTAGCAACTATTTTGCTATCTACATTTACCTTTTAAGAGGAGGAAT | 0.108
6 | CGACATGTCCCGCTTCTTTCATTAATCCGTTAGCAACTATTTTGCTTTATACATTTACCTTTTAAGAGGAGGAAT | 0.459
7 | CGACATGTCCCGCTTCTTTCATTAATCCGTTAGCAACTATTTTGGTATATACATTTACCTTTTAAGAGGAGGAAT | 0.273
8 | CGACATGTCCCGCTTCTTTCATTAATCCGTTAGCAACTATTTTGTTATATACATTTACCTTTTAAGAGGAGGAAT | 0.578
9 | CGACATGTCCCGCTTCTTTCATTAATCCGTTAGCAACTATTTTTCTATATACATTTACCTTTTAAGAGGAGGAAT | 0.613
10 | CGACATGTCCCGCTTCTTTCATTAATCCGTTAGCAACTCATTTGCTATATACATTTACCTTTTAAGAGGAGGAAT | 1.46
11 | CGACATGTCCCGCTTCTTTCATTAATCCGTTAGCAACTCTTTTACTATATACATTTACCTTTTAAGAGGAGGAAT | 0.579
12 | CGACATGTCCCGCTTCTTTCATTAATCCGTTAGCAACTCTTTTGATATATACATTTACCTTTTAAGAGGAGGAAT | 0.51
13 | CGACATGTCCCGCTTCTTTCATTAATCCGTTAGCAACTCTTTTGCTATAAACATTTACCTTTTAAGAGGAGGAAT | 1.3
14 | CGACATGTCCCGCTTCTTTCATTAATCCGTTAGCAACTCTTTTGCTATATACATTTAACTTTTAAGAGGAGGAAT | 1.36
15 | CGACATGTCCCGCTTCTTTCATTAATCCGTTAGCAACTCTTTTGCTATATACATTTACCTTTTAAGAGGAGGAAT | 1.15
16 | CGACATGTCCCGCTTCTTTCATTAATCCGTTAGCAACTCTTTTTCTATATACATTTACCTTTTAAGAGGAGGAAT | 0.642
17 | CGACATGTCCCGCTTCTTTCATTAATCCGTTAGCAACTGAGTTGCTATATACATTTACCTTTTAAGAGGAGGAAT | 0.261

Row | Sequence | cleaved RNA product abundance
18 | CGACATGTCCCGCTTCTTTCATTAATCCGTTAGCAACTGATTTACTATATACATTTACCTTTTAAGAGGAGGAAT | 0.502
19 | CGACATGTCCCGCTTCTTTCATTAATCCGTTAGCAACTGATTTGATATATACATTTACCTTTTAAGAGGAGGAAT | 0.463
20 | CGACATGTCCCGCTTCTTTCATTAATCCGTTAGCAACTGATTTGCAATATACATTTACCTTTTAAGAGGAGGAAT | 0.49
21 | CGACATGTCCCGCTTCTTTCATTAATCCGTTAGCAACTGATTTGCCATATACATTTACCTTTTAAGAGGAGGAAT | 0.226
22 | CGACATGTCCCGCTTCTTTCATTAATCCGTTAGCAACTGATTTGCTAAATACATTTACCTTTTAAGAGGAGGAAT | 0.217
23 | CGACATGTCCCGCTTCTTTCATTAATCCGTTAGCAACTGATTTGCTATAAACATTTACCTTTTAAGAGGAGGAAT | 0.686
24 | CGACATGTCCCGCTTCTTTCATTAATCCGTTAGCAACTGATTTGCTATATACATATACCTTTTAAGAGGAGGAAT | 1
25 | CGACATGTCCCGCTTCTTTCATTAATCCGTTAGCAACTGATTTGCTATATACATTAACCTTTTAAGAGGAGGAAT | 1.33
26 | CGACATGTCCCGCTTCTTTCATTAATCCGTTAGCAACTGATTTGCTATATACATTTACCCTTTAAGAGGAGGAAT | 0.843
27 | CGACATGTCCCGCTTCTTTCATTAATCCGTTAGCAACTGATTTGCTATATACATTTACCTTTTAAGAGGAGGAAT | 0.96
28 | CGACATGTCCCGCTTCTTTCATTAATCCGTTAGCAACTGATTTGCTATATACATTTACTTTTTAAGAGGAGGAAT | 1.06
29 | CGACATGTCCCGCTTCTTTCATTAATCCGTTAGCAACTGATTTGCTATATACATTTATCTTTTAAGAGGAGGAAT | 1.36
30 | CGACATGTCCCGCTTCTTTCATTAATCCGTTAGCAACTGATTTGCTATATACATTTTCCTTTTAAGAGGAGGAAT | 0.328
31 | CGACATGTCCCGCTTCTTTCATTAATCCGTTAGCAACTGATTTGCTATATAGATTTACCTTTTAAGAGGAGGAAT | 0.979
32 | CGACATGTCCCGCTTCTTTCATTAATCCGTTAGCAACTGATTTGCTTTATACATTTACCTTTTAAGAGGAGGAAT | 0.282
33 | CGACATGTCCCGCTTCTTTCATTAATCCGTTAGCAACTGATTTTCTATATACATTTACCTTTTAAGAGGAGGAAT | 0.689
